# Data reported in patent US6423315 (UNIVERSITY OF TENNESSEE RESEARCH, dated 2002).
# Ends that are not written are not given here.
# Target: I-A^q molecule of MHC (mouse (DBA/1))
# Experiment: cell-based or functional assay
binder,measurement,value
"PTGPLGPKGQTGELGIAGFKGDTGAK (not fully specified) [CII 245-270 [s266, 267, 269]]","IL-2 U/ml, T-cell hybridoma 2qCII92.33, molar ratio competitor:CII 245-270 1.6:1",160 U/ml
same,"IL-2 U/ml, T-cell hybridoma 2qCII92.33, molar ratio competitor:CII 245-270 3.2:1",160 U/ml
same,"IL-2 U/ml, T-cell hybridoma 2qCII92.33, molar ratio competitor:CII 245-270 6.5:1",160 U/ml
same,"IL-2 U/ml, T-cell hybridoma 2qCII92.33, molar ratio competitor:CII 245-270 13:1",160 U/ml
same,"IL-2 U/ml, T-cell hybridoma qCII85.33, molar ratio competitor:CII 245-270 1.6:1",640 U/ml
same,"IL-2 U/ml, T-cell hybridoma qCII85.33, molar ratio competitor:CII 245-270 3.2:1",640 U/ml
same,"IL-2 U/ml, T-cell hybridoma qCII85.33, molar ratio competitor:CII 245-270 6.5:1",640 U/ml
same,"IL-2 U/ml, T-cell hybridoma qCII85.33, molar ratio competitor:CII 245-270 13:1",640 U/ml
same,"IL-2 U/ml, T-cell hybridoma qCII98.10, molar ratio competitor:CII 245-270 1.6:1",160 U/ml
same,"IL-2 U/ml, T-cell hybridoma qCII98.10, molar ratio competitor:CII 245-270 3.2:1",160 U/ml
same,"IL-2 U/ml, T-cell hybridoma qCII98.10, molar ratio competitor:CII 245-270 6.5:1",160 U/ml
same,"IL-2 U/ml, T-cell hybridoma qCII98.10, molar ratio competitor:CII 245-270 13:1",160 U/ml
